Source: US20040106557
“Also recorded” adds a separate entry of the source.

Experiments:
[1] = target: insulin like growth factor-binding protein 3 (IGF-BP-3) (UniProt P17936)
[2] = tested on: chemically synthesized peptide C-4 without GA flanks (C-4-1, C4 parent)
[3] = tested on: chemically synthesized peptide A-1 (A-1-1, A-1 parent)
[4] = tested on: GST-B-2 (peptide B-2 expressed as glutathione S-transferase fusion protein)
[5] = tested on: GST-A-1 (peptide A-1 expressed as glutathione S-transferase fusion protein)
[6] = tested on: GST-C-4 (peptide C-4 expressed as glutathione S-transferase fusion protein)
[7] = tested on: SKSKSKS-aca-CVAYCIEHHCWTC (SKSKSKS-tailed peptide C4)
Target sequence (chain, as listed by the source): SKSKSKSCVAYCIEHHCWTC

[8] = tested on: mercaptoethanol-reduced C4

insulin like growth factor-binding protein 3 (IGF-BP-3), sequence (P17936 28-291): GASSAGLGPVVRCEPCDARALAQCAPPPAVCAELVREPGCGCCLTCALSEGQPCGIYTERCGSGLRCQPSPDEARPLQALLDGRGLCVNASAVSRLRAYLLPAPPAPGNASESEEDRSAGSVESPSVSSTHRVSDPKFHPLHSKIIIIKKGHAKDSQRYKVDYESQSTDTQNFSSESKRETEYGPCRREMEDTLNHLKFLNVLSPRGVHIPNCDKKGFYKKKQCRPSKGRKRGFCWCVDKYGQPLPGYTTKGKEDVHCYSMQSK

Substance: Prostate specific antigen (PSA), purified from human seminal fluid
- PSA enzyme activity (A405) on substrate S-2586; PSA 0.33 µM, peptide in 30-fold molar excess (125I-labeled C4): 125-iodinated C4: rises to about 0.048 at 58 min, little above PSA alone (about 0.040) and far under C4 (about 0.070)
- decrease in IGF-BP-3 immunoreactivity (IFMA) after 16 h at 37 °C [1]: PSA alone slowly cleaved IGF-BP-3 as revealed by an 30% decrease in immunoreactivity
- PSA enzyme activity (A405) on substrate S-2586; PSA 0.33 µM [2]: Unlabelled C4: rises to about 0.16 at 95 min; PSA control about 0.095; also recorded: C4: rises to about 0.070 at 58 min; PSA alone about 0.040
- PSA enzyme activity (A405 nm) on substrate S-2586; PSA 0.33 µM, peptide in 30-fold molar excess [2]: non-tailed C4: rises linearly to about 0.063 at 65 min; PSA control about 0.021
- cleavage of IGF-BP-3 by PSA (IGF-BP-3 IFMA), 100-fold molar excess of peptide [2]: about 70% cleavage of IGF-BP-3
- PSA enzyme activity (A405) on substrate S-2586; PSA 0.33 µM, peptide in 30-fold molar excess (Tc99m-labeled C4): C4-technetium-conjugate: rises to about 0.12 at 95 min, between unlabelled C4 (about 0.16) and the PSA control (about 0.095); wide error bars
- cleavage of IGF-BP-3 by PSA (IGF-BP-3 IFMA), 100-fold molar excess of peptide [3]: about 70% cleavage of IGF-BP-3
- PSA enzyme activity (A405) on substrate S-2586; PSA 0.33 µM with 100 µL of C18 fractions of the Eu-labelling mixture of C4 (Eu-labelled C4-peptide): at 60 min fraction 27 reaches about 0.043, fraction 26 about 0.037, fraction 28 about 0.024; all other fractions and the PSA control lie together at about 0.006-0.011
- PSA activity against the chromogenic substrate S-2586 (A405) [4]: The enzyme activity of PSA was significantly enhanced by the GST-peptides
- PSA activity against the chromogenic substrate S-2586 (A405) [5]: The enzyme activity of PSA was significantly enhanced by the GST-peptides
- PSA activity against the chromogenic substrate S-2586 (A405) [6]: stimulating PSA activity against the chromogenic substrate about 5-fold
- PSA enzyme activity (A405 nm) on substrate S-2586; PSA 0.33 µM, peptide in 30-fold molar excess [7]: SKSKSKS-tailed C4: rises linearly to about 0.060 at 65 min, just under non-tailed C4; PSA control about 0.021
- PSA enzyme activity (A405) on substrate S-2586; PSA 0.33 µM [8]: mercaptoethanol-reduced C4: curve lies on that of the PSA control over the whole time, about 0.095 at 95 min: no enhancement
